Assay results taken from patent EP1595946A2 (Sugen, Inc., dated 2005).

Biological target: T1, SULU1-coiled-coil2 GST fusion (Construct 1; amino acids 752-898) (human, UniProt Q5R4F3 752-898 (Pongo abelii entry))
T1 construct: Immobilised bait in T7 phage display; also called SULU1 ccl; not shown: glutathione S-transferase (GST) of vector pGEX-4T; baits were made as C-terminal fusions to GST, expressed in E. coli
T1 sequence: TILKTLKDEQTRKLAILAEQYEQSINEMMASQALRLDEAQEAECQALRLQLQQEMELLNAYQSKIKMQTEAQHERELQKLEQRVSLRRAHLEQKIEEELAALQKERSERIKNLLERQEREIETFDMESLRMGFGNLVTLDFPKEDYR
Test: T7 phage display, H441 cDNA library, GST-fused bait; interactor listed

B1: GEK2 coiled-coil domain displayed on T7 phage (677-820 of SEQ #26) (other)
chain: KESMKQKMEEHTQKKQLLDRDFVAKQKEDLELAMKRLTTDNRREICDKERECLMKKQELLRDREAALWEMEEHQLQERHQLVKQQLKDQYFLQRHELLRKHEKEREQMQRYNQRMIEQLKVRQQQEKARLPKIQRSEGKTRMAM
notes: also called GEK2 cc dom; GEK2 CC1; not shown: T7 phage coat protein of vector T7Select1-1b to which the cDNA fragment is fused
  binding result: binds
